From patent publication US20190100594A1 (INHIBRX, published 2019)
Positions count from the first letter of the chain named. Where two headings read alike, the source gives them in different places.

Columns and labels:
[1] = target: T1, GITR expressed on CHO cells (Homo sapiens (Human), UniProt Q9Y5U5 26-241); assay: flow cytometry on GITR-expressing CHO cells, MFI-FL4
T1 construct: also called glucocorticoid-induced TNFR-related protein; TNFRSF18
T1 sequence: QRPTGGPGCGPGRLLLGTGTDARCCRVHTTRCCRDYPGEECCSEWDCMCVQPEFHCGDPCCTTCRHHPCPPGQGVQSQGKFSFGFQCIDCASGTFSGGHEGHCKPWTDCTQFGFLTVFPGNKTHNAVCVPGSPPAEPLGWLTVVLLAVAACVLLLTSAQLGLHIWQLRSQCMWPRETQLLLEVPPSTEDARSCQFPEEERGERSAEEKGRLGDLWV

[2] = target: T1, GITR expressed on CHO cells; assay: flow cytometry competition on GITR-expressing CHO cells; blocked ligand recombinant GITRL; readout GITRL bound, MFI-FL1
Excerpt: Briefly, in these studies, a flow cytometry assay using GITR expressing CHO cells and recombinant GITRL was used to implement to assess blocking capacity. The GITR antibody, TRX-518, was used as a control for these studies.

[3] = target: T1, GITR expressed on CHO cells; assay: flow cytometry on GITR-expressing CHO cells, MFI-FL4; remark: listed apart in the source
[4] = target: T2, cyno GITR-CHO (cynomolgus monkey); assay: flow cytometry on cyno GITR-CHO cells
T2 construct: expressed on the surface of CHO cells, construct not described; also called cynomolgus GITR expressed on the surface of CHO cells

[5] = target: T3, human GITR-CHO (human, UniProt Q9Y5U5); assay: flow cytometry on human GITR-CHO cells
T3 construct: expressed on the surface of CHO cells, construct not described; also called human GITR expressed on the surface of CHO cells
T3 sequence (looked up): T1 sequence

[6] = target: T3, human GITR-CHO; assay: flow cytometry on human GITR-CHO cells; remark: listed apart in the source
[7] = target: T2, cyno GITR-CHO; assay: flow cytometry on cyno GITR-CHO cells; remark: listed apart in the source
[8] = target: T3, human GITR-CHO; assay: flow cytometry on human GITR-CHO cells; remark: listed apart in the source
[9] = target: T2, cyno GITR-CHO; assay: flow cytometry on cyno GITR-CHO cells; remark: listed apart in the source
[10] = target: T3, human GITR-CHO; assay: flow cytometry on human GITR-CHO cells; remark: listed apart in the source

B1: H11 (VHH, not shown: a dimerising Fc or GST)
VHH: QVQLVQSGGGLVQPGGSLRLSCAASGSVFSIDSMSWFRQAPGNERELVALITGGRTTTYADSVKGRFTISRASAPNTVHLQMNSLKPEDTAVYYCNAVVSTGWGRNADDYWGQGTQVTVS
- EC50 (read off the curve) [1]: 2 to 3 nM
- IC50 (read off the curve) [2]: 2 to 3 nM

B2: B3 (VHH, not shown: a dimerising Fc or GST)
VHH: B1 VHH with S21I, A40R, A60S, P75L, V98A, V99L, N106D, D108S, D109A
- EC50 (read off the curve) [3]: ~2 nM
- IC50 (read off the curve) [2]: ~3 nM

B3: B5 (VHH, not shown: a dimerising Fc or GST)
VHH: B1 VHH with G16E, A40G, S73N, K86E, V98A
- EC50 (read off the curve) [1]: 2 to 3 nM
- IC50 (read off the curve) [2]: 2 to 3 nM

B4: C4 (VHH, not shown: a dimerising Fc or GST)
VHH: B1 VHH with G16E, A40G, S73N, V98A, N106S
- EC50 (read off the curve) [1]: 2 to 3 nM
- IC50 (read off the curve) [2]: 2 to 3 nM

B5: B7 (VHH, not shown: a dimerising Fc or GST)
VHH: B1 VHH with V5Q, Q6E, A40T, L50H, S84N, V98A
- EC50 (read off the curve) [1]: ~3 nM
- IC50 (read off the curve) [2]: ~3 nM

B6: E2 (VHH, not shown: a dimerising Fc or GST; small tags and cut ends)
VHH: B1 VHH with V5Q, Q6E, H79Y
- EC50 (read off the curve) [3]: ~1 nM
- IC50 (read off the curve) [2]: ~2 nM

B7: B2 (VHH, not shown: a dimerising Fc or GST; small tags and cut ends)
VHH: B1 VHH with V5Q, Q6E, R55H, A60G, K86Q, V98A
- EC50 (read off the curve) [3]: ~0.7 nM
- IC50 (read off the curve) [2]: ~1 nM

B8: F2 (VHH, not shown: a dimerising Fc or GST; small tags and cut ends)
VHH: QLVQSGGGLVQPGESLRLSCAASGSVFSIDSVSWFRQGPGNERELVALITGGRTTTYADSVKGRFTISRANAPNTVHLRMNSLKPEDTAVYYCNAAVSTGWGRNADDYWGQGTQVTVS
- EC50 (read off the curve) [3]: ~1 nM
- IC50 (read off the curve) [2]: ~1 nM

B9: B12 (VHH, not shown: a dimerising Fc or GST)
VHH: QVQLQQSGGGLVQAGGSLRLSCAASGSIFSIDAMGWYRLAPGKQRELVAVIDGVSPNYADSVKGRFTISSDIAKNTVYLQMHSPKPEDTAVYYCNADVSTGWGRPADHYWGQGTQVTVS
- EC50 (read off the curve) [1]: ~4 nM
- IC50 (read off the curve) [2]: ~6 nM

B10: C7 (VHH, not shown: a dimerising Fc or GST)
VHH: QVQLQESGGGLVQAGGSLRLSCTASGSIFSIDDMGWYRLAPGKQRELVAVHSGSSTNYGDSVKGRFTISGDSAKNTVYLQMHRLEPEDTAVYYCYAAISSGWGRDAEDYWGQGTQVTVS
- EC50 (read off the curve) [1]: ~2 nM
- IC50 (read off the curve) [2]: 2 to 3 nM

B11: hzCC04v5.5 (VHH)
VHH: EVQLLESGGGEVQPGGSLRLSCAASGFTFSTHGMDWFRQAPGKDLEWVSAIQSGGSWTSYASSVKGRFTISRDNAKNTLYLQMQQLRAEDTAVYWCQNRVTRGQGTLVTV
notes: sheet prints hzCC04, text hzC04; also called hzC04v5.5
- EC50 (read off the curve) [4]: 1 to 2 nM
- EC50 (read off the curve) [5]: ~2 nM

B12: hzCC04v5.7 (VHH)
VHH: B11 VHH with Q84D, Q85N
notes: sheet prints hzCC04, text hzC04; also called hzC04v5.7
- EC50 (read off the curve) [4]: 1 to 2 nM
- EC50 (read off the curve) [5]: ~2 nM

B13: hzCC04v5.6 (VHH)
VHH: B11 VHH with Q85N
notes: sheet prints hzCC04, text hzC04; also called hzC04v5.6
- EC50 (read off the curve) [4]: 1 to 2 nM
- EC50 (read off the curve) [5]: ~2 nM

B14: hzCC04v5.12 (VHH)
VHH: B11 VHH with Q84S, Q85N
notes: sheet prints hzCC04, text hzC04; also called hzC04v5.12
- EC50 (read off the curve) [4]: 1 to 2 nM
- EC50 (read off the curve) [5]: ~2 nM

B15: hzCC04v5.11 (VHH)
VHH: B11 VHH with Q84N
notes: sheet prints hzCC04, text hzC04; also called hzC04v5.11
- EC50 (read off the curve) [4]: 1 to 2 nM
- EC50 (read off the curve) [5]: ~2 nM

B16: hzCC04v5.10 (VHH)
VHH: B11 VHH with Q85D
notes: sheet prints hzCC04, text hzC04; also called hzC04v5.10
- EC50 (read off the curve) [4]: 1 to 2 nM
- EC50 (read off the curve) [5]: ~2 nM

B17: hzCC04v5.8 (VHH)
VHH: B11 VHH with Q84N, Q85D
notes: sheet prints hzCC04, text hzC04; also called hzC04v5.8
- EC50 (read off the curve) [4]: 1 to 2 nM
- EC50 (read off the curve) [5]: ~2 nM

B18: hzCC04v5.9 (VHH)
VHH: B11 VHH with Q84D, Q85D
notes: sheet prints hzCC04, text hzC04; also called hzC04v5.9
- EC50 (read off the curve) [4]: 1 to 2 nM
- EC50 (read off the curve) [5]: ~2 nM

B19: hzC06v3 (VHH)
VHH: EVQLLESGGGEVQPGGSLRLSCAASGSVFSIDAMGWYRQAPGKQRELVAVLSGISSAKYAESVKGRFTISRDNAKNTLYLQMSSLRAEDTAVYYCYADVSTGWGRDAHGYWGQGTLVTV
- EC50 (read off the curve) [6]: 1 to 2 nM

B20: hzC06v1.1 (VHH)
VHH: B19 VHH with Q44G, R45L, A49S, V50A, K58T
- EC50 (read off the curve) [7]: ~8 nM
- EC50 (read off the curve) [6]: 1 to 2 nM

B21: hzC06v1.4 (VHH)
VHH: B19 VHH with K43Q, A49S, V50A, K58T
- EC50 (read off the curve) [7]: ~4 nM
- EC50 (read off the curve) [6]: 1 to 2 nM

B22: hzC06v3.2 (VHH)
VHH: B19 VHH with E61D, R71G
- EC50 (read off the curve) [8]: ~4 nM

B23: hzC06v2.3 (VHH)
VHH: B19 VHH with K58T
- EC50 (read off the curve) [7]: ~4 nM
- EC50 (read off the curve) [6]: 1 to 2 nM

B24: hzC06v2.2 (VHH)
VHH: B19 VHH with Q44G, K58T
- EC50 (read off the curve) [7]: ~4 nM
- EC50 (read off the curve) [6]: 1 to 2 nM

B25: hzC06v2.1 (VHH)
VHH: B19 VHH with Q44G, R45L, K58T
- EC50 (read off the curve) [6]: 1 to 2 nM

B26: hzC06v3.1 (VHH)
VHH: B19 VHH with Q39L, K43Q
- EC50 (read off the curve) [8]: ~4 nM

B27: hzC06v3.10 (VHH)
VHH: B19 VHH with E61D, S62A, D72A, N73S, K75P, L78V
- EC50 (read off the curve) [9]: ~2 nM
- EC50 (read off the curve) [10]: 1 to 2 nM

B28: hzC06v3.7 (VHH)
VHH: B19 VHH with E61A, V63A, K64P, N73A, A74V, L78V
- EC50 (read off the curve) [9]: ~2 nM
- EC50 (read off the curve) [10]: 1 to 2 nM

B29: hzC06v3.5 (VHH)
VHH: B19 VHH with D72A, N73S, K75P
- EC50 (read off the curve) [8]: ~4 nM

B30: hzC06v3.9 (VHH)
VHH: B19 VHH with E61A, V63A, K64P, L78V
- EC50 (read off the curve) [9]: ~2 nM
- EC50 (read off the curve) [10]: 1 to 2 nM

B31: hzC06v1.3 (VHH)
VHH: B19 VHH with A49S, V50A, K58T
- EC50 (read off the curve) [7]: ~4 nM
- EC50 (read off the curve) [6]: 1 to 2 nM

B32: hzC06v3.12 (VHH)
VHH: B19 VHH with E61A, V63A, K64P, D72A, N73S, K75P, L78V
- EC50 (read off the curve) [9]: ~2 nM
- EC50 (read off the curve) [10]: 1 to 2 nM

B33: hzC06v3.8 (VHH)
VHH: B19 VHH with E61A, V63A, K64P, N73A, A74V, K75E, L78V
- EC50 (read off the curve) [10]: 1 to 2 nM

B34: hzC06v2.4 (VHH)
VHH: B19 VHH with K43Q, K58T
- EC50 (read off the curve) [7]: ~4 nM
- EC50 (read off the curve) [6]: 1 to 2 nM

B35: hzC06v1.2 (VHH)
VHH: B19 VHH with Q44G, A49S, V50A, K58T
- EC50 (read off the curve) [7]: ~4 nM
- EC50 (read off the curve) [6]: 1 to 2 nM

B36: hzC06v3.11 (VHH)
VHH: B19 VHH with E61D, S62A, K64E, D72A, N73S, K75P, L78V
- EC50 (read off the curve) [10]: 1 to 2 nM
